Among the data in patent US10899842 (dated 2021) are Kd values, retold here.

First the molecules themselves.
B1: ZW104 (antibody, V domains shown)
VH: QVQLQQSGAELARPGASVKMSCKASGYIFTTYAMHWVKQRPGQGLEWIGYINPTTVYTIYNQKFKDKATLTADKSSSTAYMQLSSLTSEDSAVYYCARLGGHWYFDVWGAGTTVTVSS
VL: not shown
B2: ZW106 (antibody, V domains shown)
VH: QVQLQQPESELVRPGGSVKLSCKASGYTFTSYWMDWVKQRHGQGLEWIGNIYPDSGGTNYAEKFKSKATLTVDTSSSTAYMHLSSLTSEDSAVYYCTREEALGGYYELTYWGQGTLVTVSA
VL: DIVLTQSPASLPVSLGQRATISCRASQSVSTSSYSYMHWYQQKPGQPPKLLIKYASNLESGVPARFSGSGSGTDFTLNIHPVEEEDTATYYCQHSWEIPYTFGGGTKLEIE
B3: ZW107 (antibody, V domains shown)
VH: QVQLQQSGAELVRPGTSVKISCKASGYAFTNYWLGWVKQRPGHGLEWIGDIYPGNGNNYYSEKFKDKATLTADKSSSTVYIRLSSLTSEDSAVYFCARHGSFRSAMDYWGQGTSVTVSS
VL: DIQMTQSPASPSASVGETVTITCRASENIYSYLAWYQQKQGKSPQLLVYNAKTLADGVPSRFSGSGSGTQFSLKINSLQPEDFGSYYCQHHYGTPPTFGGGTKLEIK
B4: ZW103 (antibody, V domains shown)
VH: QVQLQQSGAELVRPGVSVKISCKGSGYTFTDYAMHWVKQSHVKSLEWIGGISTYNGDASYNQKFKGKATMTVDKSSRTAYMELVRLTSEDSAIYYCAPSNYGYAMDYWGQGTSVTVSS
VL: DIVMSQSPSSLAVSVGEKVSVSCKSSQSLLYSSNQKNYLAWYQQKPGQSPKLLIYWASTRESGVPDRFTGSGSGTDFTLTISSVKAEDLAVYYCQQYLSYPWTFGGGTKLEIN

Broadly, the Kd is the concentration at which binding is half-saturated.

In the assay the target is human 4-1BB ECD (human, UniProt Q07011).
Chain of human 4-1BB ECD (Q07011 24-186): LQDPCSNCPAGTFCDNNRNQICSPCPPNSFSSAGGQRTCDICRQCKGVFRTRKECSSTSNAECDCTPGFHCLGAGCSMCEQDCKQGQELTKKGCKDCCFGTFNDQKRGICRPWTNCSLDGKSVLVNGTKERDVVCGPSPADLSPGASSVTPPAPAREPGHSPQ
As for B1, the Kd turned out to be 0.0474 nM. For B2 the value was 1.2 nM; for B3, less than 0.001 nM; for B4, 0.265 nM.
